According to publication PMC4376295 (Nature communications, 2014):
Where a chain is given by its changes, count along the chain named. Names and notes keep the numbering of the source. One block for each binder: values may come before it.

What was measured:
[1] = biological target: T1, HerA harbouring both M51L and M82L mutations (Sulfolobus solfataricus, UniProt Q97WG8 1-500, M51L | M82L); assay: SEC-coupled SAXS
T1 sequence (looked up): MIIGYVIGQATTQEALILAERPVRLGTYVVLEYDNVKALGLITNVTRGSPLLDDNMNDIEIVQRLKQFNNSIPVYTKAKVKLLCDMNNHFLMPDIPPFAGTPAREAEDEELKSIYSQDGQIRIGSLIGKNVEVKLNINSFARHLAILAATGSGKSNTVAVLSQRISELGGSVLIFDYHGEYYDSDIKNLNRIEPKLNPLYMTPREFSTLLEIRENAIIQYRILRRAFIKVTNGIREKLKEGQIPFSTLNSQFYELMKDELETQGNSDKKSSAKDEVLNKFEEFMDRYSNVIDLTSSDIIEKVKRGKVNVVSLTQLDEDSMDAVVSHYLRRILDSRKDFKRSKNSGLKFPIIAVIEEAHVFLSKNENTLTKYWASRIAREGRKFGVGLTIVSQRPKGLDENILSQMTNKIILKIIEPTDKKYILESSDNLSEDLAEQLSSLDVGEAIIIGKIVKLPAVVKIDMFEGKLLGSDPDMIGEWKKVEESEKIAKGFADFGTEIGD

[2] = biological target: the molecule itself; assay: SEC-coupled SAXS
[3] = biological target: T2, native HerA (S. solfataricus, Sso2251) (Sulfolobus solfataricus, UniProt Q97WG8 1-500); assay: SEC
T2 sequence (looked up): T1 sequence (looked up) with L51M, L82M

binding result [1]: binds
B1: NurA D58A (nuclease inactivated) (enzyme, Sulfolobus solfataricus, UniProt Q97WH1 1-339, looked up)
chain: MIRKIYDKLVESHNEIKNQIYNIANYLKQEIQDKVNEYWNEYVINHEQSETCKFVAIAGGSFGRPMRIGIVYAVGAESVIGDNKGVKTLSEDGQIGIFKPGNDAQERISLLMEALELSLALRDGSKGDYILMDGSLSKKIGNKVDIQQFSDEELKLIRNVDLNGIISIKDERKMRDLLMLLNQFLVSKIIEEYDGNVLWISKVSRGRDLFGTDYPDITVLELFTEKRGFSKLIIKNIDIEKISEIPEIEVLRKMEYTTFYTRLDNGKRVIRVDIVGRVDEKIVKEIMDRLSGVSIKGYPFPLLKAHMDVRFSAMDREKIIKLVGSKLHKDIEWWPSQFY
binding result [2]: binds

binding result [3]: binds
B2: native NurA (S. solfataricus) (enzyme, Sulfolobus solfataricus, UniProt Q97WH1 1-339, looked up)
chain: B1 chain with A58D
